Measurements as given in patent publication US20110229560.

T1: NLRC5-D1, containing the CARD and NOD domains (aa 1-517)
T1 chain: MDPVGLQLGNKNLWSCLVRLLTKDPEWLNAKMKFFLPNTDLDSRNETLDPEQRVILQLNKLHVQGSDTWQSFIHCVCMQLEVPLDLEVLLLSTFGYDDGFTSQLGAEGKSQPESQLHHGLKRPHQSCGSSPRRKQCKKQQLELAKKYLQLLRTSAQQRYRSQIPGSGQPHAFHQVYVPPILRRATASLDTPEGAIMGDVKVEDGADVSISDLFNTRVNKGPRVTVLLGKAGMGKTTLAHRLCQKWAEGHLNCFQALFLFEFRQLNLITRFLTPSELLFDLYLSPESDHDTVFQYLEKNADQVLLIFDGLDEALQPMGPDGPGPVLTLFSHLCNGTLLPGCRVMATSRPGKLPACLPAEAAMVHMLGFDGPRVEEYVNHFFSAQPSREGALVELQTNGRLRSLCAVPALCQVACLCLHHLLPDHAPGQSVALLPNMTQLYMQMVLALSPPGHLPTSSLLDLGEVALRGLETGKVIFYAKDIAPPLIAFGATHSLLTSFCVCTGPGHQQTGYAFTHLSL

T2: NLRC5-D2, containing the LRR-R1 (aa 651-898)
T2 chain: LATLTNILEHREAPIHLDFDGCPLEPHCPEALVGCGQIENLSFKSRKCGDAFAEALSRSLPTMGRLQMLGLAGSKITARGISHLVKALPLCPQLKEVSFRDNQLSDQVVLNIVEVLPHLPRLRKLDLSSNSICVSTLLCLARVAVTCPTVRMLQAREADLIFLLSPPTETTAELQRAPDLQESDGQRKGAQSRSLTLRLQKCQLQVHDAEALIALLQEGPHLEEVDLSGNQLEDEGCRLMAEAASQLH

T3: NLRC5-D3, containing the link region and LRR-R2 (aa 900-1329)
T3 chain: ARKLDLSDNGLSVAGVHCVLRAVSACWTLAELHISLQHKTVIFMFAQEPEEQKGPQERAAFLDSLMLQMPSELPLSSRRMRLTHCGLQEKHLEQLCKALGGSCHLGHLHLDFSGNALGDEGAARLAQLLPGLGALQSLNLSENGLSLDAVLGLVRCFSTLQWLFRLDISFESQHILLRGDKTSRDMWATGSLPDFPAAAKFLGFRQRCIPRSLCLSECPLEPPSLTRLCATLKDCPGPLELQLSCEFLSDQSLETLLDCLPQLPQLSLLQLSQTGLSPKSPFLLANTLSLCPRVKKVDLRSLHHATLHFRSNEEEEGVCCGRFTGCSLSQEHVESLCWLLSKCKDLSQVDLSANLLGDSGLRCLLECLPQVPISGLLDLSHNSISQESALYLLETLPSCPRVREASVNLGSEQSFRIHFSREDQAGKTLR

T4: NLRC5-D4, containing the CARD domain and LRR-R3 (aa 1-215 plus 1471-1866)
T4 chain: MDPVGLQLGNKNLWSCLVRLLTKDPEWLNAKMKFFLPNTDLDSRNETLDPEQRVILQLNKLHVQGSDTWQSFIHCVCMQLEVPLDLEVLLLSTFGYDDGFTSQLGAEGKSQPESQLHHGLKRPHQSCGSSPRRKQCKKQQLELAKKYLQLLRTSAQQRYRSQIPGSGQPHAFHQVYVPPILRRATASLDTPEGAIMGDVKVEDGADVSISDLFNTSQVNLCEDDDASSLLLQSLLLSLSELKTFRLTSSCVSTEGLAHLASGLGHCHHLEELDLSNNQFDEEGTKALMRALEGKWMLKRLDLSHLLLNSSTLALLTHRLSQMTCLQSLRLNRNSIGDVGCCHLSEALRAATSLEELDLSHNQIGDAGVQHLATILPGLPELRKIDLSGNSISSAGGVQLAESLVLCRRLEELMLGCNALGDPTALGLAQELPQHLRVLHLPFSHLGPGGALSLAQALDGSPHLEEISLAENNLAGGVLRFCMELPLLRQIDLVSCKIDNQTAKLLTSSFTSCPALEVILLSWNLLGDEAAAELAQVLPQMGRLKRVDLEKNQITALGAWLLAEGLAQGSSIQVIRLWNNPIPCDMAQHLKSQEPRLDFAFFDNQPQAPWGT

B1: Flag-tagged IKKα (protein)
chain: MERPPGLRPGAGGPWEMRERLGTGGFGNVCLYQHRELDLKIAIKSCRLELSTKNRERWCHEIQIMKKLNHANVVKACDVPEELNILIHDVPLLAMEYCSGGDLRKLLNKPENCCGLKESQILSLLSDIGSGIRYLHENKIIHRDLKPENIVLQDVGGKIIHKIIDLGYAKDVDQGSLCTSFVGTLQYLAPELFENKPYTATVDYWSFGTMVFECIAGYRPFLHHLQPFTWHEKIKKKDPKCIFACEEMSGEVRFSSHLPQPNSLCSLVVEPMENWLQLMLNWDPQQRGGPVDLTLKQPRCFVLMDHILNLKIVHILNMTSAKIISFLLPPDESLHSLQSRIERETGINTGSQELLSETGISLDPRKPASQCVLDGVRGCDSYMVYLFDKSKTVYEGPFASRSLSDCVNYIVQDSKIQLPIIQLRKVWAEAVHYVSGLKEDYSRLFQGQRAAMLSLLRYNANLTKMKNTLISASQQLKAKLEFFHKSIQLDLERYSEQMTYGISSEKMLKAWKEMEEKAIHYAEVGVIGYLEDQIMSLHAEIMELQKSPYGRRQGDLMESLEQRAIDLYKQLKHRPSDHSYSDSTEMVKIIVHTVQSQDRVLKELFGHLSKLLGCKQKIIDLLPKVEVALSNIKEADNTVMFMQGKRQKEIWHLLKIACTQSSARSLVGSSLEGAVTPQTSAWLPPTSAEHDHSLSCVVTPQDGETSAQMIEENLNCLGHLSTIIHEANEEQGNSMMNLDWSWLTE
B2: Flag-tagged IKKβ (full length) (protein)
chain: MSWSPSLTTQTCGAWEMKERLGTGGFGNVIRWHNQETGEQIAIKQCRQELSPRNRERWCLEIQIMRRLTHPNVVAARDVPEGMQNLAPNDLPLLAMEYCQGGDLRKYLNQFENCCGLREGAILTLLSDIASALRYLHENRIIHRDLKPENIVLQQGEQRLIHKIIDLGYAKELDQGSLCTSFVGTLQYLAPELLEQQKYTVTVDYWSFGTLAFECITGFRPFLPNWQPVQWHSKVRQKSEVDIVVSEDLNGTVKFSSSLPYPNNLNSVLAERLEKWLQLMLMWHPRQRGTDPTYGPNGCFKALDDILNLKLVHILNMVTGTIHTYPVTEDESLQSLKARIQQDTGIPEEDQELLQEAGLALIPDKPATQCISDGKLNEGHTLDMDLVFLFDNSKITYETQISPRPQPESVSCILQEPKRNLAFFQLRKVWGQVWHSIQTLKEDCNRLQQGQRAAMMNLLRNNSCLSKMKNSMASMSQQLKAKLDFFKTSIQIDLEKYSEQTEFGITSDKLLLAWREMEQAVELCGRENEVKLLVERMMALQTDIVDLQRSPMGRKQGGTLDDLEEQARELYRRLREKPRDQRTEGDSQEMVRLLLQAIQSFEKKVRVIYTQLSKTVVCKQKALELLPKVEEVVSLMNEDEKTVVRLQEKRQKELWNLLKIACSKVRGPVSGSPDSMNASRLSQPGQLMSQPSTASNSLPEPAKKSEELVAEAHNLCTLLENAIQDTVREQDQSFTALDWSWLQTEEEEHSCLEQAS

Key:
[1] = molecular target: T1, NLRC5-D1, containing the CARD and NOD …
[2] = molecular target: T2, NLRC5-D2, containing the LRR-R1 (aa …)
[3] = molecular target: T3, NLRC5-D3, containing the link region …
[4] = molecular target: T4, NLRC5-D4, containing the CARD domain …

Protein	phosphorylation of IKKα [1]	phosphorylation of IKKα [2]	phosphorylation of IKKα [3]	phosphorylation of IKKα [4]	phosphorylation of IKKβ [1]	phosphorylation of IKKβ [2]	phosphorylation of IKKβ [3]	phosphorylation of IKKβ [4]
B1	NLRC5-D1, -D2 and -D4 produced little or only slight inhibition	NLRC5-D1, -D2 and -D4 produced little or only slight inhibition	NLRC5-D3 strongly inhibited IKKα and IKKβ phosphorylation	NLRC5-D1, -D2 and -D4 produced little or only slight inhibition	–	–	–	–
B2	–	–	–	–	NLRC5-D1, -D2 and -D4 produced little or only slight inhibition	NLRC5-D1, -D2 and -D4 produced little or only slight inhibition	NLRC5-D3 strongly inhibited IKKα and IKKβ phosphorylation	NLRC5-D1, -D2 and -D4 produced little or only slight inhibition
